The values that follow come from patent publication US20230032087A1 (CULLINAN ONCOLOGY, published 2023).

Where only a bound is given, the exact number is not on record here.

The experiment addresses protein A (UniProt P38507 37-327). As to the kind of experiment: ForteBio Octet HTX (filing: SPR), HCAb on AHC sensors, 1:1 model. On the technique in general: BLI is a label-free optical method that tracks binding on a fibre tip over time.

B1: CNG-HSA-101 (VHH)
VHH: KVQLVESGGGLVQPGGSLRLSCAASGFTFSSFGMTWVRQAPGKGLEWVSSISGSGSDTLYADSVRGRFTISRDNSKNTLYLQMNSLRAEDTAVYYCTIGGSLSPSSQGTLVTVSS
With B1, the equilibrium dissociation constant (Kd) was ≤ 1.84 nM and the off-rate (koff) is ≤ 0.0002 s⁻¹.

For orientation: Kd means the equilibrium constant for the complex coming apart. Read a high Kd as lower affinity. For orientation: koff means a measure of how fast the partners let go of each other. Lower therefore signals a long-lived complex.
